The target of this data set is T1, recombinant ANX7 (human annexin VII) (UniProt P20073).
T1 sequence: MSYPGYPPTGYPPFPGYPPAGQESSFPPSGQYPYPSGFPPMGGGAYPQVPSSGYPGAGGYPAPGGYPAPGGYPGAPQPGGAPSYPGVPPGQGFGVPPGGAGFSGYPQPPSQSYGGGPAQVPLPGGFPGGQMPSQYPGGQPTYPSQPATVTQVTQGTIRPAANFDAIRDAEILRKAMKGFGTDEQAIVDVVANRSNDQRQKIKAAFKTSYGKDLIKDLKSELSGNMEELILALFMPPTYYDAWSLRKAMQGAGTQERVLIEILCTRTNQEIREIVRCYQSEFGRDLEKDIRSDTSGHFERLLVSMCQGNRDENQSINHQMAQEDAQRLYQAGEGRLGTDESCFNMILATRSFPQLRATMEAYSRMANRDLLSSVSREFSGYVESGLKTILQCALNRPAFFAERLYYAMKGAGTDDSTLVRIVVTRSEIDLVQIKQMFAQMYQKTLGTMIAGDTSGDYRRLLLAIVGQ
Ca^2+/calmodulin Kinase II: the “in vitro phosphorylation of recombinant ANX7” value (“in vitro phosphorylation” for short) is on record as “no activity was detected when recombinant ANX7 was exposed to casein kinase 1, casein kinase II, or Ca^2+/calmodulin kinase II”.

Regarding Casein kinase I, the “in vitro phosphorylation” value is “no activity was detected when recombinant ANX7 was exposed to casein kinase 1, casein kinase II, or Ca^2+/calmodulin kinase II”.

In the case of cAMP-dependent protein Kinase, the “molar ratio of ^32[P]/ANX7 protein after a 30-minute incubation” value (“molar ratio of ^32[P]/ANX7 protein” for short) is listed as “PKA (molar ratio=1.0)”.

In the case of cGMP-dependent protein kinase, the “molar ratio of ^32[P]/ANX7 protein” value was “PKG (molar ratio=1.0)”.

Take casein Kinase II: the “in vitro phosphorylation” value is reported as “no activity was detected when recombinant ANX7 was exposed to casein kinase 1, casein kinase II, or Ca^2+/calmodulin kinase II”.

With epidermal growth factor receptor kinase, the “molar ratio of ^32[P]/ANX7 protein” value was “only five were active ... EGFR kinase (molar ratio not determined)”.

Regarding protein kinase C, the “molar ratio of ^32[P]/ANX7 protein” value was “PKC (molar ratio=2.0)”.

For the substance tyrosine kinase p60^src, the “molar ratio of ^32[P]/ANX7 protein” value is on record as “p60^src (molar ratio=1.0)”.

Values taken from patent US20050123978.
